“And” between values parts separate entries of the source, which are not always exact repeats. Equal values may be shown once.
What was measured:
[1] = clinical test, cited from earlier work
[2] = test system: adipose tissue; assay: Autopsy and pathological examination of experimental rabbits; assay type: in vivo, rabbit; conditions: polypeptide-Adjuvant mixture injected three times into hypoderm every two weeks, versus saline-Adjuvant
Protocol: In FIG. 3A, arrows indicate distribution of adipose tissue in various organs in the test rabbit that SynLeptin-2 polypeptide-Adjuvant mixture was injected three times into the hypoderm every two weeks. In FIG. 3B, arrows indicate distribution of adipose tissue in various organs injected with saline-Adjuvant mixture three times into the hypoderm every two weeks.
We analyzed the reasons for the decrease in body weight by autopsy and pathological examinations. […] When the rabbits were sacrificed and autopsy was carried out, no pathological abnormali in their organs was observed. However, remarkable reduction of fat mass not only in abdominal and subcutaneous adipose tissues but also tissues surrounding various organs was evident.

[3] = Body weight of ZDF rats with nonfunctional Leptin receptor treated with SynLeptin polypeptides; assay type: in vivo, rat; conditions: 12-week-old ZDF rats; injected two times every two weeks into hypoderm; after about 30 days; saline control 8.5% increase
Protocol: FIG. 2 illustrates weigh loss when SynLeptin-1 or 2 polypeptide was injected two times every two weeks into the hypoderm of 12-week-old ZFD rats with non-functional Leptin receptor.
(§1) 4 white rabbits with 1.2 kg body weight were divided into a control group and an experimental group having two rabbits, respectively. The purified SynLeptin-1 or -2 protein (500-700 μg or saline was mixed with Adjuvant 2 ml (Sigma), and then injected into 4 different parts of the rabbit hypoderm. After 2 weeks, an equivalent amount of the protein-Adjuvant mixture was injected, and then third injection was performed after 2 weeks. Thereafter, body weight loss was measured after 10 days. The result was as follows. The body weight of the experimental group treated with SynLeptin-1 was 1.8 kg and 2.08 kg, respectively (average 1.94 kg), while the body weight of the control group was 2.5 kg and 2.45 kg, respectively (average 2.48 kg). […] Also we treated the ZDF rats with nonfunctional Leptin receptor gene with SynLeptin-1 or -2 polypeptides for 30 days (FIG. 2).

[4] = Body weight of white rabbits after subcutaneous injection of protein-Adjuvant mixture; assay type: in vivo, rabbit; conditions: 10 days after third injection
Protocol: as §1

Q: Which results are given for “Leptin: 16 kDa ob polypeptide hormone synthesized in adipose tissue, regulating body weight”?
A: weight response upon Leptin treatment (other obese people) ([1]; other obese people): did not lost weight; body weight lost ([1]; some obese people): 7.1 kg

B1: SynLeptin-2: Tat polypeptide of 86 amino acids from N-terminus of Tat, expressed from pGEX4T-3-SynLeptin-2 (protein)
chain: MEPVDPRLEPWKHPGSQPKTACTNCYCKKCCFHCQVCFMTKALGISYGRKKRRQRRRAHQNSQTHQASLSKQPTSQSRGDPTGPKE
modifications: 86 amino acid Tat mutant
notes: Tat polypeptide of 86 amino acids from N-terminus of Tat, expressed from pGEX4T-3-SynLeptin-2
Q: Which “fat / adipose tissue at autopsy” value [2] does the source give for B1 here?
A: markedly reduced fat in various tissues including adipose tissue

Q: What about the “weight loss (decrease of body weight)” value [3] of the same molecule?
A: 4.3%

B2: SynLeptin-1: Tat polypeptide fragment, 71 (b9: 72) amino acids from N-terminus of Tat, expressed from pGEX4T-3-SynLeptin-1 (protein)
chain: MEPVNPSLEPWKHPGSQPKTACTNCYCAKCCFHCQVCFITKALGISYGRAKRRQRRRPPQGSQTHQVSLSK
modifications: 71 amino acid Tat mutant
Q: What does the source list for B2?
A: body weight of individual rabbit of the experimental group ([4]; rabbits, starting body weight 1.2 kg, control 2.5 and 2.45 kg): 1.8 kg and 2.08 kg; average body weight of the experimental group ([4]; two rabbits, control average 2.48 kg): 1.94 kg; weight increase [3]: 3.5%

Source: patent publication US20070073040A1, “Anti-obesity polypeptides” (Yonsei University, priority 2001, published 2007)
